Assay results reported in article PMC3797800, “The Coordination of Cell Growth during Fission Yeast Mating Requires Ras1-GTP Hydrolysis” (PLoS ONE, 2013).

Biological target: T1, CFP-Ras1 (S. pombe, UniProt P08647 1-219)
T1 construct: Ras1, small GTPase of Schizosaccharomyces pombe; ORF amplified from the start codon to the stop codon and cloned behind CFP; also called Ras1-GTP; source: S. pombe (strain JY1618, Δras1Δgap1), expressed from pREP4x (nmt1 promoter), in living cells; not shown: CFP, N-terminal, kept
T1 sequence (looked up): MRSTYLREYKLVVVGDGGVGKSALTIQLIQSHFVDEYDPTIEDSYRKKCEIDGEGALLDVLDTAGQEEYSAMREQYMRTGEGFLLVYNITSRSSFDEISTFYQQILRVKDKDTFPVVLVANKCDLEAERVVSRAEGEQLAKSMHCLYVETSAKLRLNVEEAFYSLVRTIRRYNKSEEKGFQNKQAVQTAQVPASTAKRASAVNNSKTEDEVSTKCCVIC
Experiment: FRET or BRET; FACS-based FRET (405 nm excitation, 585/42 nm emission), living S. pombe cells co-expressing CFP and YFP fusions; percent of cells with a FRET signal over 0-8 h after 10 μM pheromone
Details: partners not purified

- fold increase of the percent of cells with a FRET signal, 30 min pheromone against time 0: 2 fold
B1: Gap1-YFP (natural protein, S. pombe, UniProt P33277 1-766, looked up)
chain: MTKRHSGTLSSSVLPQTNRLSLLRNRESTSVLYTIDLDMESDVEDAFFHLDRELHDLKQQISSQSKQNFVLERDVRYLDSKIALLIQNRMAQEEQHEFAKRLNDNYNAVKGSFPDDRKLQLYGALFFLLQSEPAYIASLVRRVKLFNMDALLQIVMFNIYGNQYESREEHLLLSLFQMVLTTEFEATSDVLSLLRANTPVSRMLTTYTRRGPGQAYLRSILYQCINDVAIHPDLQLDIHPLSVYRYLVNTGQLSPSEDDNLLTNEEVSEFPAVKNAIQERSAQLLLLTKRFLDAVLNSIDEIPYGIRWVCKLIRNLTNRLFPSISDSTICSLIGGFFFLRFVNPAIISPQTSMLLDSCPSDNVRKTLATIAKIIQSVANGTSSTKTHLDVSFQPMLKEYEEKVHNLLRKLGNVGDFFEALELDQYIALSKKSLALEMTVNEIYLTHEIILENLDNLYDPDSHVHLILQELGEPCKSVPQEDNCLVTLPLYNRWDSSIPDLKQNLKVTREDILYVDAKTLFIQLLRLLPSGHPATRVPLDLPLIADSVSSLKSMSLMKKGIRAIELLDELSTLRLVDKENRYEPLTSEVEKEFIDLDALYERIRAERDALQDVHRAICDHNEYLQTQLQIYGSYLNNARSQIKPSHSDSKGFSRGVGVVGIKPKNIKSSNTVKLSSQQLKKESVLLNCTIPEFNVSNTYFTFSSPSTDNFVIAVYQRGHSKVLVEVCICLDDVLQRRYASNPVVDLGFLTFEANKLYHLFEQLFLRK
notes: ORF amplified from the start codon, stop codon removed, cloned in front of YFP; source: S. pombe, expressed from pREP3x (nmt1 promoter), in living cells; not shown: YFP, C-terminal, kept
